{"source": "patent US20160038588A1", "about": "“Myostatin Antagonism in Human Subjects” (AMGEN INC., priority 2013, published 2016)", "key": {"myostatin [1]": {"target": "T1, myostatin (Homo sapiens, UniProt O14793)", "T1 construct": "To produce mature myostatin, the pooled promyostatin was enzymatically cleaved between the propeptide and mature myostatin C terminal; made in house", "T1 sequence (O14793 267-375)": "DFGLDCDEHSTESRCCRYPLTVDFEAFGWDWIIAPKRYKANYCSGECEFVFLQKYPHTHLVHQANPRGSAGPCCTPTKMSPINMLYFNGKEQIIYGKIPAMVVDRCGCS", "assay": "Epitope binning for peptibodies (BIAcore)", "assay_type": "binding", "protocol": "Epitope Binning for Peptibodies\nA purified peptibody was immobilized on a BIAcore chip to capture myostatin before injection of a second peptibody, and the amount of secondary peptibody bound to the captured myostatin was determined Only peptibodies with distinct epitopes will bind to the captured myostatin, thus enabling the binning of peptibodies with similar or distinct epitope binding properties."}, "myostatin [2]": {"target": "T1, myostatin", "assay": "C2C12 pMARE-luc cell based myostatin activity assay", "from_the_text": "The antagonists including the binding agents described herein can be tested for their ability to bind myostatin and inhibit or block myostatin activity. Any number of assays or animal tests may be used to determine the ability of the agent to inhibit or block myostatin activity. Several assays used for characterizing the peptides and peptibodies of the present invention are described in the Examples below. One assay is the C2C12 pMARE-luc assay which makes use of a myostatin-responsive cell line (C2C12 myoblasts) transfected with a luciferase reporter vector containing myostatin/activin response elements (MARE). Exemplary peptibodies are assayed by pre-incubating a series of peptibody dilutions with myostatin, and then exposing the cells to the incubation mixture. The resulting luciferase activity is determined, and a titration curve is generated from the series of peptibody dilutions. The IC50 (the concentration of peptibody to achieve 50% inhibition of myostatin activity as measured by luciferase activity) was then determined. A second assay described below is a BIAcore® assay to determine the kinetic parameters ka (association rate constant), kd (dissociation rate constant), and KD (dissociation equilibrium constant) for the myostatin binding agents and other antagonists such as antibodies capable of binding myostatin and its receptor. Lower dissociation equilibrium constants (KD, expressed in nM) indicated a greater affinity of the peptibody for myostatin. […] These assays are described in Example 3.\nC2C12 Cell Based Myostatin Activity Assay\nA myostatin-responsive reporter cell line was generated by transfection of C2C12 myoblast cells (ATCC No: CRL-1772) with a pMARE-luc construct. The pMARE-luc construct was made by cloning twelve repeats of the CAGA sequence, representing the myostatin/activin response elements (Dennler et al. EMBO 17: 3091-3100 (1998)) into a pLuc-MCS reporter vector (Stratagene cat #219087) upstream of the TATA box. The myoblast C2C12 cells naturally express myostatin/activin receptors on its cell surface. When myostatin binds the cell receptors, the Smad pathway is activated, and phosphorylated Smad binds to the response element (Macias-Silva et al. Cell 87:1215 (1996)), resulting in the expression of the luciferase gene. Luciferase activity is then measured using a commercial luciferase reporter assay kit (cat # E4550, Promega, Madison, Wis.) according to manufacturer's protocol. A stable line of C2C12 cells that had been transfected with pMARE-luc (C2C12/pMARE clone #44) was used to measure myostatin activity according to the following procedure.\nEqual numbers of the reporter cells (C2C12/pMARE clone #44) were plated into 96 well cultures. A first round screening using two dilutions of peptibodies was performed with the myostatin concentration fixed at 4 nM. Recombinant mature myostatin was preincubated for 2 hours at room temperature with peptibodies at 40 nM and 400 nM respectively. The reporter cell culture was treated with the myostatin with or without peptibodies for six hours. Myostatin activity was measured by determining the luciferase activity in the treated cultures. This assay was used to initially identify peptibody hits that inhibited the myostatin signaling activity in the reporter assay. Subsequently, a nine point titration curve was generated with the myostatin concentration fixed at 4 nM. The myostatin was preincubated with each of the following nine concentrations of peptibodies: […], 0.4 nM, 4 nM, 20 nM, 40 nM, 200 nM, 400 nM, 2 uM and 4 uM for two hours before adding the mixture to the reporter cell culture. The IC50 values were for a number of exemplary peptibodies are provided in Tables III and for affinity matured peptibodies, in Table VIII."}, "[3]": {"target": "T2, myostatin binding to ActRIIB/Fc (Homo sapiens, UniProt O14793)", "T2 construct": "To produce mature myostatin, the pooled promyostatin was enzymatically cleaved between the propeptide and mature myostatin C terminal; host or cells: myostatin: E. coli K-12 strain 2596; ActRIIB/Fc purchased", "T2 sequence (O14793 267-375)": "T1 sequence (O14793 267-375)", "assay": "Blocking assay on ActRIIB/Fc surface (BIAcore)", "protocol": "Blocking Assay on ActRIIB/Fc Surface\nBlocking assays were carried out using immobilized ActRIIB/Fc (R&D Systems, Minneapolis, Minn.) and myostatin in the presence and absence of peptibodies with the BIAcore® assay system. […] Baseline myostatin-ActRIIB/Fc binding was first determined in the absence of any peptibody.\nFor early screening studies, peptibodies were diluted to 4 nM, 40 nM, and 400 nM in sample buffer and incubated with 4 nM myostatin (also diluted in sample buffer). The peptibody:ligand mixtures were allowed to reach equilibrium at room temperature (at least 5 hours) and then were injected over the immobilized ActRIIB/Fc surface for 20 to 30 minutes at a flow rate of 10 μl/min. […] Selected peptibodies were further characterized using the blocking assay of a full concentration series in order to derive IC50 values (for neutralizing peptibodies) or EC50 (for non-neutralizing peptibodies). The peptibody samples were serially diluted from 200 nM to […] in sample buffer and incubated with […] myostatin at room temperature to reach equilibrium (minimum of five hours) before injected over the immobilized ActRIIB/Fc surface for 20 to 30 minutes at a flow rate of 10 μl/min. Following the sample injection, bound ligand was allowed to dissociate from the receptor for 3 minutes."}, "myostatin [4]": {"target": "T1, myostatin", "assay": "BIAcore affinity analysis on immobilized myostatin", "assay_type": "binding", "details": "Biacore assay", "from_the_text": "The antagonists including the binding agents described herein can be tested for their ability to bind myostatin and inhibit or block myostatin activity. Any number of assays or animal tests may be used to determine the ability of the agent to inhibit or block myostatin activity. Several assays used for characterizing the peptides and peptibodies of the present invention are described in the Examples below. One assay is the C2C12 pMARE-luc assay which makes use of a myostatin-responsive cell line (C2C12 myoblasts) transfected with a luciferase reporter vector containing myostatin/activin response elements (MARE). Exemplary peptibodies are assayed by pre-incubating a series of peptibody dilutions with myostatin, and then exposing the cells to the incubation mixture. The resulting luciferase activity is determined, and a titration curve is generated from the series of peptibody dilutions. The IC50 (the concentration of peptibody to achieve 50% inhibition of myostatin activity as measured by luciferase activity) was then determined. […]\nDirect binding assays were used to screen and rank the peptibodies in order of their ability to bind to immobilized myostatin. […] Peptibody binding kinetic parameters including ka (association rate constant), kd (dissociation rate constant) and KD (dissociation equilibrium constant) were determined using the BIA evaluation 3.1 computer program (Biacore, Inc.). […]"}}, "note": "pIC50, pKd: −log10 of the molar value. Where no end group is shown, it is not given here."}
{"substance": "TN8-19: peptibody; peptide QGHCTRWPWMCPPY (cysteine pairing not given here; also: Fc fusion peptibody)", "values": [{"measurement": "epitope on myostatin (binning)", "setting": "myostatin [1]", "value": "bind to different epitopes"}, {"measurement": "inhibition of myostatin activity in cell-based assay", "setting": "myostatin [2]", "value": "inhibit myostatin activity"}, {"measurement": "IC50 of peptibody compared with peptide (FIG. 1)", "setting": "myostatin [2]; C2C12 based assay", "value": "significantly less than that of the peptide"}, {"measurement": "pIC50", "setting": "myostatin [2]; pMARE luc cell-based assay, myostatin 4 nM", "value": "~7.64"}, {"measurement": "blocking of myostatin/ActRIIB/Fc interactions", "setting": "[3]", "value": "does not block"}, {"measurement": "pKd", "setting": "myostatin [4]", "value": "~8.70"}]}
